Key:
Assay in all cases: SPR
Bal gp120 [1] = target: T1, Bal gp120 (HIV-1 clade B isolate Bal)
[2] = target: wild type gp120 Env protein AE (HIV-1 clade E isolate 93TH976.17)
[3] = target: autologous gp120 antigen Czm (HIV-1 clade C isolate 96ZM652)
[4] = target: autologous gp120 antigen A2 (HIV-1 clade A isolate 92UG037.8)
[5] = target: autologous gp120 antigen B (HIV-1 clade B isolate 92US715.6)
Bal gp120 [6] = target: T1, Bal gp120; remark: listed apart in the source

B1: HmAb64 (antibody, V domains shown)
VH: QVQLVQSGAEVKKPGASVKVSCKASGYTFTSYDITWVRQAPGQGLEWMGWISAYNGDTNYAQRLQGRVTMTTDTSTSTAYMELRSLRSDDTAVYYCARAKHTVLVTAMRWFDPWGQGTLVTVSS
VL: DIQMTQSPSSLSASVGDRVTITCRASQSISNYLNWYQQKPGKAPKLLISATSSLQSGVPSRFSGSGSGTDFTLTISSLQPDDFATYYCQQSYSTPWTFGQGTKLEIK
koff (Bal gp120 [1]): 0.000459 s⁻¹
Kd [2]: 20 nM
koff [2]: 0.000423 s⁻¹
Kd [3]: 22.5 nM
koff [3]: 0.000454 s⁻¹
Kd [4]: 39.4 nM
koff [4]: 0.000641 s⁻¹
Kd [5]: 22.9 nM
koff [5]: 0.000684 s⁻¹
Kd (Bal gp120 [6]): 16 nM

Reference: paper PMC10602183 (2023)
